Legend:
[1] = molecular target: PfNPM A3 (residues 1-170, up to A3 acidic tract) (Plasmodium falciparum) (UniProt C0H4U4); experiment: pull-down
[2] = molecular target: PfNPM A1 (residues 1-110, up to A1 acidic tract) (Plasmodium falciparum) (UniProt C0H4U4); experiment: pull-down

## assembled H3/H4 tetramer (from UniProt P84233 1-136; P62799 1-103) (complex)
[1]
  highest NaCl concentration at which the complex was stable: 600 mM NaCl
[2]
  highest NaCl concentration at which the complex was stable: 600 mM NaCl

Source: PMC11993163
